Where no end group is shown, it is not given here.
Target: T1, Ac-Met11-Tau peptide: {N-alpha-acetyl}MEDHAGTYGLG (human)
T1 construct: Synthetic peptide coated on the ELISA plate; The C-terminal cysteine was added only for KLH conjugation of the immunogen; also called N-alpha-acetyl-Met11-Tau peptide; AcMet11-peptide
T1 peptide: Ac-MEDHAGTYGLG
Assay: indirect ELISA on coated peptide, positive control

B1: 2H2D11 antibody (antibody, IgG2a, V domains shown)
VH: EVRLVESGGGLVQPGGSLRLSCATSGFTFTDYYLSWVRQPPGKAFEWLGFIRNRADGYTTNYSASVKGRFTISRDNSQSILYLQMNTLRVEDSATYYCARDNDHYAMDYWGQGTSVTVSS
VL: DVVMTQTPLSLSVTIGQPASISCKSSQSLLYSNGKTYLNWLQQRPGQAPKHLMYQVSKLDPGIPDRFSGSGSETDFILKISRVEAEDLGIYYCLQGTYYPYTFGGGTKLEIK
notes: also called Mab 2H2D11; monoclonal antibody directed against AcMet11-Tau
binding result: binds

Source: patent US20220177558A1 (INSERM INSTITUT NATIONAL DE LA SANT ET DE LA RECHERCHE M …, published 2022)
